Experimental data: publication doi:10.1101/2021.11.02.466972

Molecular target: T1, MBP-CahR (Pseudomonas putida KT2440) (UniProt Q88GQ3)
T1 sequence: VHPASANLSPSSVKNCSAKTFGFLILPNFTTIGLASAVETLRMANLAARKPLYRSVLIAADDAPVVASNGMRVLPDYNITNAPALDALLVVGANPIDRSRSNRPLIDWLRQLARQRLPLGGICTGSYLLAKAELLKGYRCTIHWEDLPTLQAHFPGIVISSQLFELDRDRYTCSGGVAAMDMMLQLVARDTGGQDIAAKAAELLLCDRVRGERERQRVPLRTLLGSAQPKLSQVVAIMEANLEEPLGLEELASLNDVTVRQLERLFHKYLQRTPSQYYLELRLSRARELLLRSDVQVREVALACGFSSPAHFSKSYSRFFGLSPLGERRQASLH
Assay: EMSA
Conditions: buffer, not given

Q: “GTTTGTCCGAGACTTTGTGGCCGCCTGGCAGAAGGTCATGGAGCTGGACCGCTTTGATCTGAAATAGCGTTGCCTGGCGGGGGGGGCGCGCTCAGCGCCCCCTTGGCCAGTGGTTATCCCGCCAATTCCAGGTCGGATAGATACAAAAGTGTCCTCGTCGGTTCTGTTGCAATGCTTCTCAGGCGGCCGGCCTGAACAGCGTGCTCACAACGACAAGGAACCCCGACCATGCAAATGCCCAAGACC (double strand) [creA promoter probe]” was tested. Which binding did it give?
A: binds
